From the supplement of paper PMC9170038

Columns and labels:
MS2 coat protein [1] = assay: apparent KD of MS2 coat protein, switch OFF state (with FMN for OFF switches, without FMN for ON switches); designed switch direction (-1 OFF switch, 1 ON switch): -1; higher = weaker reporter binding; settings: FMN input: 0 or 200 uM; Eterna round: R93 (includes R88 designs)
Procedure, shortened: (§1)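 Designed RNA switches were transcribed on-chip from Illumina sequencing clusters. They were then titrated with SNAP-549-labelled MS2 coat protein (twofold steps, 0.7 or 1.5 nM to 3 µM; 0.8–1.5 h to 10–20 min per step) in 100 mM Tris-HCl pH 7.5, 80 mM KCl, 4 mM MgCl2, without or with constant ligand. Apparent KD is the per-design median of normalised cluster binding-curve fits.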

MS2 coat protein [2] = assay: apparent KD of MS2 coat protein, switch ON state; designed switch direction (-1 OFF switch, 1 ON switch): -1; higher = weaker reporter binding; settings: FMN input: 0 or 200 uM; Eterna round: R93 (includes R88 designs)
Procedure, shortened: as §1

MS2 coat protein [3] = assay: apparent KD of MS2 coat protein; designed switch direction (-1 OFF switch, 1 ON switch): 1; higher = weaker reporter binding
Procedure, shortened: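 Designed RNA switches sharing common flanks were transcribed on Illumina chips by stalled E. coli RNA polymerase. They were titrated with SNAP-549-labelled MS2 coat protein, from 0.7 or 1.5 nM doubling to 3 µM, in Tris-HCl pH 7.5 buffer with KCl, MgCl2, BSA, DTT, tRNA and Tween-20. Titrations ran without input, with 200 uM small-molecule ligand, or with an oligonucleotide input. The apparent KD of each design is the median over its clusters, after curve-fitting of normalised cluster fluorescence.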

[4] = input ligand: microRNA oligo, concentration not stated

| Sequence | apparent KD of MS2 coat protein (MS2 coat protein [1]) [nM] | apparent KD of MS2 coat protein (MS2 coat protein [2]) [nM] | further results |
| --- | --- | --- | --- |
| AAAAAAAGAGGAUAUACAUGAAAAAUAAAAAUGUAAAAAAAACAUGAGGAUCACCCAUGUAGAAGGCUUAAAAA [Ecx-I 62% 1] | 25.9 | 24.6 | – |
| AAAAAACAUGAGGAUCACCCAUGUAAGGAUAUCGUGCAGAAAAAAAAAAAAAACUGCACGAGAAGGUACAAGGA [Brourd - Exclusion 1 - Sub 1] | 62.7 | 36.1 | – |
| AAAAAACAUGAGGAUCACCCAUGUAAGGAUAUCUAAAAUAAAAGAAAAAUAAAGAAAAGGAGAAGGUACAUGCA [JL wbt mod 26] | 34.5 | 32 | – |
| AAAAAACAUGAGGAUCACCCAUGUAAGGAUAUCUAAAAUAAAAGAAAAAUAAAGAAAAGGAGAAGGUACAUGGA [JL wbt mod 22] | 15.6 | 22.9 | – |
| AAAAAACAUGAGGAUCACCCAUGUAAGGAUAUGACUUAAAUAAAGAAAGAAGAAAUAGUCAGAAGGUACAAAUA [Disincluded (MS2 Riboswitches - States energetically close)] | 31 | 20.4 | – |
| AAAAAACAUGAGGAUCACCCAUGUAAGGAUAUGCAAAAAAUGGGUAAAAGGGUAAAAAGCAGAAGGUACAAAAA [scarecrow1] | 92.1 | 156 | – |
| AAAAAACAUGAGGAUCACCCAUGUAAGGAUAUGCAAAAUAAAAGAAAUAAAAAGGAAAGCAGAAGGUACAUGAA [JL wbt mod 8] | 42.5 | 21.9 | – |
| AAAAAACAUGAGGAUCACCCAUGUAAGGAUAUGCAGAUUAUAAGAAAAAAAAAAAAAAGCAGAAGGUACAAAAA [Default title] | 28.2 | 37.4 | – |
| AAAAAACAUGAGGAUCACCCAUGUAAGGAUAUGCUCGGGCGAAAAAGCAAAAAAAAGAGCAGAAGGUACAAAAA [66%, Wbt, 42] | 38.7 | 20.5 | – |
| AAAAAACAUGAGGAUCACCCAUGUAAGGAUAUGCUGGUGCGAAAGCACAAAAAAAACAGCAGAAGGUACAAAAA [66%, Wbt, 37] | 27.5 | 17.4 | – |
| AAAAAACAUGAGGAUCACCCAUGUAAGGAUAUGUGAAAAAAAAAAUAAAAAAAAAAAAGCAGAAGGUACAAAAA [LROPPY Exclusion 1 - v01_deltaG=3.64] | 74.8 | 66.5 | – |
| AAAAAACAUGAGGAUCACCCAUGUCAGGAUAUACGAUAAAAAAAAAAAAAAAAAAAAUGUAGAAGGGACAAAAA [Simple 1] | 60.8 | 60.3 | – |
| AAAAAACAUGAGGAUCACCCAUGUCAGGAUAUCCGAAAAAAAAAAAAAAAAAGGCCUUGGAGAAGGGACAUUCC [Chica Displaced 7- Jieux - Exclusion 1] | 57.5 | 53.7 | – |
| AAAAAACAUGAGGAUCACCCAUGUCAGGAUAUCCGGAAAAAAAAAAAAAAAAGGCGUUGGAGAAGGGACAUUCC [Chica Displaced 8 - Jieux - Exclusion 1] | 36.8 | 28.7 | – |
| AAAAAACAUGAGGAUCACCCAUGUCAGGAUAUCCGGUUCUUAAAAAAAAAAAGGCGUUGGAGAAGGGACAUUCC [Chica Displaced 11 - Jieux - Exclusion 1] | 38 | 28.9 | – |
| UUUGCAUGACGAGGAUAUCAUUUAUUUCUUGAUUGAGAAGGCGUUCUUUUUACUACCUAACAUGAGGAUCACCCAUGUGACAGU [JR_SSNG1_Sub048] (Eterna round: R96, puzzle: Same State NG 1) | – | – | apparent KD of MS2 coat protein (MS2 coat protein [3]; [4]): 11.3 nM |
| UUUGGGUGGCUGGAGGAUAUUCUUGUGGUUACAUGAGGAUCACCCAUGUGUCGCGCGGUACGCGAGGAGAAGGCUGGCGGCCGUU (puzzle: Same State 2) | – | – | apparent KD of MS2 coat protein (MS2 coat protein [3]; Eterna round: R95, input ligand: microRNA oligo, concentration not stated): 223 nM |
| UUUUUGUUCCGAGGAUAUCCUUUUUUCUUACAUGAGGAUCACCCAUGUAAAGGGAUUGAGUUGUAGGAGAAGGCGGUUUUGUUU [JR_SSNG2_Sub061] (Eterna round: R96, puzzle: Same State NG 2) | – | – | apparent KD of MS2 coat protein (MS2 coat protein [3]; input ligand: FMN 200 uM): 16.4 nM; apparent KD of MS2 coat protein (MS2 coat protein [3]; [4]): 26.1 nM; apparent KD of MS2 coat protein (MS2 coat protein [3]; input ligand: none): 26.2 nM |
